In the supplement of paper PMC9170038:

Test system: MS2 coat protein
Assay: apparent KD of MS2 coat protein; designed switch direction (-1 OFF switch, 1 ON switch): 1; higher = weaker reporter binding
How it was run: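 Each step of the titration lasted 0.8–1.5 h at the lowest concentration and 10–20 min at the highest. The protein, SNAP-549-labelled MS2 coat protein, went from 0.7 or 1.5 nM doubling to 3 µM over RNA switches transcribed on Illumina chips by stalled E. coli RNA polymerase. Normalised cluster fluorescence was curve-fitted, and the per-design median over clusters is given as apparent KD.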

[1] = input ligand: microRNA oligo, concentration not stated
[2] = Eterna round: R95, input ligand: FMN 200 uM
[3] = Eterna round: R95, input ligand: microRNA oligo, concentration not stated
[4] = Eterna round: R95, input ligand: none

Sequence | apparent KD of MS2 coat protein (input ligand: FMN 200 uM) [nM] | apparent KD of MS2 coat protein [1] [nM] | apparent KD of MS2 coat protein (input ligand: none) [nM] | apparent KD of MS2 coat protein [2] [nM] | apparent KD of MS2 coat protein [3] [nM] | apparent KD of MS2 coat protein [4] [nM]
UUGAAGAAUUAAGGAUAUCGAGUCAAGAUGUUAAACAUGAGGAUCACCCAUGUGGGUUGCGGUAUCGAGAAGGUAAAUUACAAG [JL SSNG2 1.41] (Eterna round: R96, puzzle: Same State NG 2) | 34.8 | 26.9 | 34.9 |  |  | 
GGUCUAGUUACAGGAUAUGCAUUGCUUUGCGAUGCAGAAGGGUGGUAACAUGAGGAUCACCCAUGUGGGCCAGCGCAAAAGCGC [JL SSNG1 cdp] (Eterna round: R96, puzzle: Same State NG 1) | 981 | 661 | 1440 |  |  | 
GCAGUGGCGGUAGGAUAUCUAGGAUAUGGGAAAGACUAAGUCUGUAGGUCACCUAACCCAGAAGGAGAGAAGGACCCUGUAAGG [pwkr ssNG2 2FMN + F9.21] (Eterna round: R96, puzzle: Same State NG 2) | 348 | 74.7 | 222 |  |  | 
GUUAGGAAUCUAGCAUACAUGAGGAUCACCCAUGUAAGUGGGAAGGAUAUGGUACAGAAACUGUACCAGAAGGUCUUAUUGAUU [Omei SS(NG) 3 AV6] (Eterna round: R96, puzzle: Same State NG 3) | 45.1 | 40.8 | 80.1 |  |  | 
AUGGGCAUGCUAGGAUAUUAUAGUAGGCAGCAAUGAGAAGGAGUAUCCCGUUGCUAUCACGCACCACAUGAGGAUCACCCAUGU [Eternabot solution 32] (Eterna round: R96, puzzle: Same State NG 1) | 24.9 | 19.5 | 28.3 |  |  | 
AUUUCAGUCAGAGGAUAUUGUUUAUCUCUAUUGCAAGAAGGCUGAUCUUACUACCCACUUAUGAAACAUGAGGAUCACCCAUGU [JR_SSNG1_Sub017] (Eterna round: R96, puzzle: Same State NG 1) |  | 15.7 |  |  |  | 
UUGAUGAAUUAAGGAUAUCGAGUCGUCUAAUUAAACAUGAGGAUCACCCAUGUGGGUUGUGGUAUCGAGAAGGUAAAUUACUUA [JR_SSNG2_Sub098] (Eterna round: R96, puzzle: Same State NG 2) | 66.2 | 67.5 | 92.6 |  |  | 
CGCUGCGUUUCAUAGGAUAUGUGGUUUUGAACAUGAGGAUCACCCAUGUAGACGUCAAUGGCUCCACAGAAGGGUGACACUAGUG [Aredis] (puzzle: Same State 2) |  |  |  | 261 | 571 | 908
UACAAUCUAUCUGAGGAUAUCAUGAUGAUAACAUGAGGAUCACCCAUGUGCAGGAAAACUGCAUAUGAGAAGGCAGAUAGAUUGU [salish99_ss2_r3_074] (puzzle: Same State 2) |  |  |  | 102 | 195 | 92.4
AGUCCAGCCUGAGCUGGACAAAAGCAUGUACAUGAGGAUCACCCAUGUCAUGUACAAGCUUUUUGCUCGUCUUAUAA [Mat - hsa-mir-208a - Mod of JL - D25] (puzzle: Sensor for hsa-mir-208a) |  |  |  | 643 | 14.9 | 704
CGGAAACGUCAAGGAUAUGCUACCGUUUCGGUAGCAGAAGGUGAUCACAUGAGGAUCACCCAUGUAUGCAUGCGUGAGCGUGCU [JL SSNG1 3.56] (Eterna round: R96, puzzle: Same State NG 1) | 206 | 187 | 177 |  |  | 
AUUAAACAUGAGGAUCACCCAUGUAAUAAUAUGGGAGGAUAUGCGAAUUUAAUUAUUUAAGCAGAAGGCCUAAUUA [Mat - Same State 1 - D100] (puzzle: Same State 1) |  |  |  |  | 56 | 
CUGAGAUGUCAAGGAUAUCACGUCGAUUAGACGUGAGAAGGUGAUCAGUACAUGAGGAUCACCCAUGUGUUACAUGGAACUCAG [Brourd's SSNG1/1-A2 mod 9] (Eterna round: R96, puzzle: Same State NG 1) | 868 | 102 | 571 |  |  | 
AACAAUCUAUCUGAGGAUAUCAUGAAAUAAACAUGAGGAUCACCCAUGUGCAGGAUAACUGCAUAUGAGAAGGCAGAUAGAUUGA [salish99_ss2_r3_041] (puzzle: Same State 2) |  |  |  | 57.3 | 661 | 656
GAGAGAGGAAGCGAGGAUAUCGUGUGGAGUACAUGAGGAUCACCCAUGUUGUAGGUAGAGGUAGGCGAGAAGGCGCAGGAGAGGU [JR_SS2_Sub097] (puzzle: Same State 2) |  |  |  | 34 | 41.5 | 58.1
UGUUAUUUGACAGGAUAUUGAUUGUAAAGUUUUUACAUGAGGAUCACCCAUGUUGUUCAUUCGAACAAGAAGGGUCAAGUUUUU [JR_SSNG2_Sub019] (Eterna round: R96, puzzle: Same State NG 2) | 1070 | 48.2 | 172 |  |  | 
GCGAGCGUACUUGCAGACAUGAGGAUCACCCAUGUAAAUGGGAAGGAUAUGGUACCGUUUCGGUACCAGAAGGUCCUAAGUGAG [JL SSNG3 1.49] (Eterna round: R96, puzzle: Same State NG 3) | 129 | 702 | 646 |  |  | 
GGUCCAGCCUGAGCUGGACAAAAGCAUGUACAUGAGGAUCACCCAUGUCAUGUACAAGUUUUUUGCUCGUCUUAAAA [JL mod - D87 - 12] (puzzle: Sensor for hsa-mir-208a) |  |  |  | 35.3 | 10.6 | 38.7
AAACAUGAGGAUCACCCAUGUCGAUUAAAACCCUAAUCUACUCAGGAUAUCCGAAUGCGCGUUUCGGAGAAGGGAGAAAUGUGA [Isessoreri] (Eterna round: R96, puzzle: Same State NG 3) | 27 | 37.5 | 31.7 |  |  | 
CGGGUACAUGAGGAUCACCCAUGUGGAAGAGAUGCAGGAUAUGUGGGAAAAGGGAAUGUAACAGAAGGGCAAGGAG [JR_SS!_Sub016] (puzzle: Same State 1) |  |  |  | 53.4 | 64.1 | 144
GUAUAACAUGAGGAUCACCCAUGUCAUCUAAGUCGAGGAUAUGGGAAUUAAUUAAUUAAACCAGAAGGCGAAAAUU [Mat - Same State 1 - D92] (puzzle: Same State 1) |  |  |  | 79 | 364 | 492
GUUAAACAUGAGGAUCACCCAUGUAAUAAUAUGGGAGGAUAUGCGAAAUUAAUUAAUUAAGCAGAAGGCCUAAUUG [Mat - Same State 1 - D98] (puzzle: Same State 1) |  |  |  | 38.3 | 148 | 217
CUAGGAGGAUGAGGAUAUGCAGAGGAUCACCCUGUAGAAGGCAAGAGAUGAGGAUAUGCAGAGGAUCACCCUGUAGAAGGCAAC [pwkr ssNG DX.1] (Eterna round: R96, puzzle: Same State NG 1) | 307 | 86.5 | 122 |  |  | 
UAAUUAAAGCAAGGAUAUCACGUCGUUUAGACGUGAGAAGGUGCUCCUUACAUGAGGAUCACCCAUGUAUAACAUGAAUAAUUA [SSNG1/10-B3] (Eterna round: R96, puzzle: Same State NG 1) | 170 | 517 | 656 |  |  | 
GGCUGCGUUGUGAAGGAUAUCCGCGUCUGGACAUGAGGAUCACCCAUGUAUGCUUGGAUCAUGCCGGAGAAGGUCACGAAUGAUU [JR_SS002_Sub1214] (Eterna round: R96, puzzle: Same State 2) | 17 | 19.9 | 32.9 |  |  | 
CCGAUAAUAGGACAGGAUAUGACUGUCGUCACAUGAGGAUCACCCAUGUCCCGGCAAUGCCACCGUUAGAAGGGUCCUAUCUCGA [Maeded] (puzzle: Same State 2) |  |  |  |  | 13.5 | 
AAUUAAUUAAUACAUGAGGAUCACCCAUGUAAUUAUUAGAUCAAGGAUAUCAGCUCGUUUAGAGCUGAGAAGGUGAUCACAUGU [SSNG3/18-A3] (Eterna round: R96, puzzle: Same State NG 3) |  | 211 |  |  |  | 
UUUCUCAUGUAAGGAUAUGCAGCCGUUUCGGCUGCAGAAGGUACUAUAAUACAUGAGGAUCACCCAUGUCUCUAUUAUUUAGUU [JL SSNG1 1.44] (Eterna round: R96, puzzle: Same State NG 1) | 84.7 | 39.9 | 47.1 |  |  | 
